Assay results reported in the DeepSol protein solubility set.

Assay: soluble on expression in E. coli; label from the status in PepcDB or PDB records

Sequence | soluble on expression in E. coli
MGSDKIHHHHHHENLYFQGMSKVFVNISLSLDGFMAPEGMDMAHFSDPTYKNWGAKWGALMAWALSQQYLREKLKLGTGGETGPVNDMVRHTFERTGAHIMGKRMFEGGERGWPEEAPFHTPVYVLTHERRNPWVRPGGTTFYFVNDGPEQALALAREAAGERDIRISGGANVIQQYLNLGLVDELEIALIPVIFGGGRRLFENLHEPLPQFRIDRVLASPTATHLRYVRL | soluble
MGSDKIHHHHHHERNKTLYWGGALWSPPSNWNPFTPWNAVAGTIGLVYEPLFLYDPLNDKFEPWLAEKGEWVSNNEYVLTLRKGLRWQDGVPLTADDVVFTFEIAKKYTGISYSPVWNWLGRIERVDERTLKFVFSDPRYQEWKQMLINTPIVPKHIWENKTEEEVLQAANENPVGSGPYYVESWADDRCVFKKNGNWWGIRELGYDPKPERIVELRVLSNNVAVGMLMKGELDWSNFFLPGVPVLKKAYGIVTWYENAPYMLPANTAGIYINVNKYPLSIPEFRRAMAYAINPEKIVTRAYENMVTAANPAGILPLPGYMKYYPKEVVDKYGFKYDPEMAKKILDELGFKDVNKDGFREDPNGKPFKLTIECPYGWTDWMVSIQSIAEDLVKVGINVEPKYPDYSKYADDLYGGKFDLILNNFTTGVSATIWSYFNGVFYPDAVESEYSYSGNFGKYANPEVETLLDELNRSNDDAKIKEVVAKLSEILLKDLPFIPLWYNGAWFQASEAVWTNWPTEKNPYAVPIGWNGWWQLTGIKTLFGIEAK | soluble
MGSDKIHHHHHHETENVNCGQVLAGDTAYLKTVTGEYRIKIAENESLNMSCEAVMDRILSRDHVLRPLENGVAFARVVYMDYELIEKHVEMSYHPQNSFCFAIDKKAAKEFKERMQAMASCLPNVLLLPGRFFKNPIHDLSVDSHGHNTNLAHYNCLRALINKPGWNYAILLQNHDLITKSVYELEKIFNWLGGANDVAIRPELGRLDKKHFKWDPMSLKLFRNESEIDPVILNTTLKFAKGAVQSSLSRAAVDWMTRTVDLTTFIDQWNHGTYGVDEQFTQAFQISDFLGMPGHFTDKCIKKGIITEGITRFAQWTHGDQSKCASKKSRHGICIMGIEHLSMMAKSEHLMFNKVLPLFDYSIIECTAE | not soluble
MGSDKIHHHHHHGDDDDSSSSGNWQDLSKTYEGKSVNLVMGEVTVPVDGKSVVIAASSAEKASVTLNNIIPENKSVAIDAALKEADGTYTFTGESTVGDCVVSVNGTVKGGVASVVYTRKLTSSIVGNWSLKVGVEAIYANIVTGNSTIDDLVRMIKPAISNLIWGKVSAVNVNLPEDGIFDVSWRPIGASEDKGIGEITKMASIQYCVVDGKFMVAVDKNYVTVLTTLLQQAAGDKLEAAGISIDEIMKLLVDLGGYYGLPLNMKVDGSEATFYADKDLIVPVLTMIAPILKPMVPENYQQMVDMVLQLLPNAKTLEFGLNFTK | not soluble
MGSDKIHHHHHHGETIDLGHDTTLDYSVTASYGAAVRTGTQSNTLLSPANINGDDGNRNFKRGDMTANRVSLLGEAHVKHDAFGALVRGSVFYDWAYSGTNSNNAPGTVNHSGPFNEFTGSARDYHESRAQLLDAYVYGAVPIESTQLSFKLGNQVVAWGESLFFANIAGAQGPADATKAFVPGAEVKDILLPVPQASVQWQVTPAFSLMGYYQFTFKPNQLFAPGSYFSTSDIVGPGAEFIIGPGFRIPRGPDISPSDWGQWGIGGRFRVFEDTEIGLYQLRYHDKNPSVVTSLFPTLQYQQKYFGGINLTGASFSTQLAGANVAGEVSYKDGVPMLVDVAGSPTASRGKALQAQLSAIYAIGPTFLANSQTLLGEIAYLHVIGVDSVMGFDKLSNTRNSAAFQVGWSLTYNNVFDGWDLTVPLTYAQQFSGNAAVAGAFGTLMGYGDKRASVGLTFKYLNNLELNLTYAAFIGGASIANRPLADRDYVAFNAKYSF | not soluble
MGSDKIHHHHHHHEEADYSQEAHHLVEFGTLLQDDPNVIVPKYHADLSTRDVLAMDFVPSHPIDDLEAADQSERDRVATQLIALMMREVFSFQRVQSDPNFANFRWQPDTGRVVLLDFGATRVLSDNLVNAARQVLRPALDNDLTALANALRELGLLDDALPDQARKTILEMVALANEPMMDPDGFDFGNTSLVTELRTSGMALGQDRSIQSIPPIEVLYLQRKAAGLFLLATRLRARVDLRSLFKS | not soluble
MGSDKIHHHHHHIRPIQRGKANAKVEFGAKIDCSLSEGVVDIERFDFTAFSEGQDFTETLDHYYDLHGHYPDEVLADTLYRNRENLKLCKDLGIRVCGPKLGRHPKNVDAAKRREDTDAENRRGTIERRFAFMKGTLGLDLVNTRTAESLAVKIDAAIVLSNALTLLRVFAIPILILAKFEGEAYRIRYKFTTRVEDMLA | not soluble
MGSDKIHHHHHHKTLAANAVFATAFVKRDGSFGAAILSEAGKVLHAIDLPDRGHDVTFDPISKRSVVFARQPGTFAVVFDHSGRDAPQTVASISGRHFFGHGVFSPDGALLYATENDFDNAAGVIGIYDARAKFSRVGEFPTYGMGPHELLLLGDGRTMAVANGGIETHPDYGRAELNIATMKPSYVLIDRVTGDLIEKHELPASLHQLSIRHMDTDPSGTVWFGCQYRGPGTDRPLLVGRAVRGKELQLLDMPQDVLSGFRNYIGSVAANLSAGSVAVSSPEGNSLVVIDAASGRVVSSSALVEVCGLAPDGSGFIATTGAGEIIEGSGATRSEPDYVWDNHMLRIERA | not soluble
MGSDKIHHHHHHKVSEAEAAKLGTSLTPMGGEMAASADGSIPAWNGGITAAPAGYKKGDHHPDPYSADKVEYTVTKANLEQYKSLLTPGQIKLFELYPDTFKMNVYKTQRSASAPQWVYDATKANASRAELVQGGNGVVGAAVGIPFPIPQNGLEAIWNHILRFRGVDIETQRNQAAPAKGGGYTLVELSEQLRFEYSQPDMTPEKLKENNTLALFKQVVTQPARLAGTALLVKETLDQEALPRQAWTYNTGQRRVRKAPNVAFDTPGTVSDGLRTTDDYDMFNGSPSRYNWELVGKKEILIPYNDYKLHSDKVKYDDILTPGHINPDLVRWEKHRVWEVKATLKDGMRHIYKTRVFFLDEDSWQVSATDMYDNRDELYRVAFAHGLNYYEVPAHWSTLEVFHDLQSRRYLAIGLDNEGSMYDFDAKLSASDFTPDALRREGVR | not soluble
MGSDKIHHHHHHKYTLRFGHVLAPGEPYHQAFLKWAKAVEEKTNGDVRIEVFPSSQLGVEEDIIEQIRMGAPVGWNTDSARLGMYVKDIGVMNLAYFIDFMGAKTPEEAIEVLKKIKQSPTMQKWLKELEQRFGIKVLSFYWVQGYRHFVTNKPIRKPEDLNGLRIRTPGAPAWQESIRSLGAIPVAVNFGEIYTAVQTRAVDGAELTYANVYNGGLYEVLKYMSETGHFLLINFEIVSADWFNSLPKEYQKIIEEEMDKAGIEVSLKIMKELEEEYKQKCIEKGMAVIPASEIDKEAFMEKAKQAYKNLGLENALNQLIKEVKGE | not soluble
MGSDKIHHHHHHLDLSPEDYYGSGNFWTKEAQVEGYMNGLHNNLRSSYTMFYVLGEARGGTSRYGTSSLGTSMSYSDPIKNNMLTKDNTGISNWYDLYGRIMQVNHFISEVSNGCSFLSESKKGFYLGQAYGLRALYYFMLYKTYGGVPLITDVKVLEGGKISADALYTERSTPETILKFIKSDLEASELNFGNNVTIDRAMWTKYATLMLKAEVYMWSAKVTTGDHQATGNSDLAIAQTALQPLINQFSLLDNFSEVFSKKANDEIIFAIRFKDGEATNWAGPFIYYGNIFEGQRYGRDGKLMQDTLDLKGTVGQFLHEYKKALWDSYDDEDMRRDATFMDHYGSAQKEGFGIAMKKGIGSVNSNNQRIFDTDIIVYRYADVLLMMAEIENALSGKCANYVNEVRKRAYGKNWHPQFAYTDGSYADNELTILHERDKEFVWEGKRWFDVVRMHDANGKSLAFSVAANYPNNETPDERVPLIKESEAHKLLWPIDVNTLNNDPKLEQTPGYDK | not soluble
MGSDKIHHHHHHLGGGGIRPSHLLADEGGGPPYRPPAGRPVPSVPALMKLNAIEAGSAAADRVPLLILHGLLGSARNWGAVVKALGESRRVLALDLPNHGSSPWTEIMDYPFMARELASVIEHLGGRAAIMGHSMGGKAAMTLALSRPELVERLVVVDIAPVSYSHTFAPYIKAMRGVPLGEVSSRGEVEAALAGAIPDKGVRAFLMQNLEGGAGGYRWRPNLAVLGAHMDDILAFPHFPDDTAFQGPTLFVAGETSDYIRPAHEDVIAQFFPKAESVEIPGAGHWVHADNPSAFMSAIGSFL | not soluble
MGSDKIHHHHHHLISTANITMQFGPEPLFENISAQFGHGNRYGLIGANGCGKSTFMKILSGALAPTSGNVSITPGLKVGNLSQDQFAFEQHSVIDTVIMGDMKLWKVKQEREAIYAKPDMTDEDGMRVGDLESEFAEMDGYSAESRAGEILIEAGIDESMHFGLMQQVPPGKKLRVLLAQALFANPDILLLDEPTNNLDIHTISWLETELNKRKCTMIIISHDRHFLNAVCTHMADIDYGELRIYPGNYEFFLAQSSLIREQLLAGNAKKSAEIDELQDFVNRFGANASKAKQASSRAKKMDKIKLDDVKSSSRITPSIRFEAGKKMHRQALILEGLGHGFDEGMLFTGGDLILEAGAKLAIIGENGVGKTTLLRCLVNELSHKEGVVKWSENAAVGYCPQDSSADFDNDLTLMDWMSQWRLPKHNDLMVRGMLGRLLFTEDDANKKARNCSGGEKNRLLFGKLMMQDVNVLIMDEPTNHMDMEAIEALNNALKDFEGTLIFVSHDREFVSSLATRVIDIKDKKLINFQGSFDEYLASQSEAQKIA | not soluble
MGSDKIHHHHHHLNTTLSEYSIENLYGLYNHSLKFNDGESIAILHGPNGVGKTALLRSITYLFNSDFSSLSKIPFSRLFAKLSDNTEIIVTRKGVTKEQLLKHSQELHKISIEIKSKDKTTTSFSLNEAQLRPELLPPWIVLSDDGSYIDERNGMLFPEEFLHQSLFGKNKQKEIRNRETATQILEKIKVHFVETNRLYRSNSDTTWKRKKEKEMVASVDECAKHLVVLISTALKDYGKKSQELDQSFPHRFISEPIAQMSLDKLKTRLNELASQLKKLRKIGLLDAEGIQPFDPESLDKVEKSKLEIMNLYVRDSEQKLAVFDNLSKRIQVLLDGLNSKFKNKNIQLNKERGLIARGPNDFDLSLSDLSSGEQHEIVLLYELLFKVAPNTLVLIDEPELSLHMTWQKSFLPELLSISREIGFSSILATHSPFIVGDRYDLLISLDTKNNNDSME | not soluble
MGSDKIHHHHHHLRDATSQIGQTVVGEAVRLVSFRPLGNLANHTLLMAAIVMMQSKHPDQFEKSNEILDTLMEREMHHPVVLTWAGIWHVMRVQKGLSGDRRKSTLMAENLANAALAQDPAFSLAHTLKGMIASYLTFDFDNAQYSYDKALQDNPNEALALLLKGATRAMQNRPDEGVVLTEAARKLTPLGPQRYYFDSLAAAVSLAARDYNRAIELADRSLEENDSYPSTLRTKAIALQMSGRSDEARHVVESLMKVTPDFSLSRYMQEHAAGFTPSGPDWASALREAGVPE | not soluble
MGSDKIHHHHHHLSQSTPDLLTKQLRYTDYLRANGIPFMKCVKPTDEALFTTIMDSIGQEWTCCLFHWIDGHHVTANTEQTAARMGQLARQLHDVSLHEQEIQFPFIDHTVTYQRWLGDLQRLSASRMPEPVQNSFQEYLTLAQQHLDTARLPKSSSLQPVISTDLNSLNVLWDSDQHIVGIVDHEHIGATDRVQDLAWLIKWYARTEGIDSHDVSGRLAKSLLTHYNSPTLLVPKEDPRLASLLWLSGCMNLHFVERTKQLAFDAENNPVGYDQFQLHLQTYRLRGERLVGLLT | not soluble
MGSDKIHHHHHHLVPPDYQDPPSDFTAEVEAGLQLNTGNNESKNFNSRAYLTYDTPKTRQEGTFKVYYAADGTETTSEKYDLFLQSSYKLNRGYVFGRGEFTWDDFGSFTEIRTLSTGYGFDLIKSYKTKLSLEAGPGYRYDMPRATLSDPEPRANREVILRTAARYSVKLQEYTSLNADVTAETGLDNNTLTLDMSYKNTFLQDWAFKIGMNVRYTQDVPQDSQRTDTTTTFNLLYTFQ | not soluble
